Biological target: T1, human IL-31R (IL-31 receptor) expressed on BaF cells (BaF/hIL-31R cells) (human, UniProt Q8NI17 20-732)
T1 sequence (looked up): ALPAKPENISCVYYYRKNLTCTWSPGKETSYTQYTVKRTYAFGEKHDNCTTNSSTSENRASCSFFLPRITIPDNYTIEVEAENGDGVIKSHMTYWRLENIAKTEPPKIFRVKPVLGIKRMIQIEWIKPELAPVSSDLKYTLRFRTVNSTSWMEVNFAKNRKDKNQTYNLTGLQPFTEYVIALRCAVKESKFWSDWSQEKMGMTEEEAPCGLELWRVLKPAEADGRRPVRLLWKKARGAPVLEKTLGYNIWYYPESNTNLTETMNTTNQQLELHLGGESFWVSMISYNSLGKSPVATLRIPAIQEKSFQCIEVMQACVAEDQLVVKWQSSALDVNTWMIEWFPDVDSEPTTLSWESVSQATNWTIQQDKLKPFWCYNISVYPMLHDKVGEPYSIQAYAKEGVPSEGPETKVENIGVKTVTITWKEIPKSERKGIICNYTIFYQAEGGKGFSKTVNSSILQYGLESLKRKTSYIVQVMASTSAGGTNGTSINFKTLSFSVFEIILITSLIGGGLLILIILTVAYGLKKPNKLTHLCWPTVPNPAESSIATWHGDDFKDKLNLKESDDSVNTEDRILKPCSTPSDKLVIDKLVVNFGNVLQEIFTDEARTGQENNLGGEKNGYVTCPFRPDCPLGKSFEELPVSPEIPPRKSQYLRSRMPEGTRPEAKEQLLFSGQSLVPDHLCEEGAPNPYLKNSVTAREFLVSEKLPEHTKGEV
Assay: cell-based or functional assay

Binder	Relative biological activity compared to CIM331 reference material (%); inhibition of IL-31-dependent proliferation of BaF/hIL-31R cells [%]	Relative biological activity compared to main peak (%); inhibition of IL-31-dependent proliferation of BaF/hIL-31R cells [%]
nemolizumab AE-HPLC fraction, peak b8 (Pre-Region 2), predominantly the succinimide form (Asu103 variant) (antibody, V domains shown, Asp103 (Kabat numbering position 99) altered to a succinimide residue (Asu103) at a ratio of 54.0% on peptide basis; Asp99 (Kabat 95) to succinimide 2.7%) VH: QVQLVQSGAEVKKPGASVKVSCKASGYTFTGYIMNWVRQAPGQGLEWMGLINPYNGGTDYNPQFQDRVTITADKSTSTAYMELSSLRSEDTAVYYCARDGYDDGPYTLETWGQGTLVTVSS VL: DIQMTQSPSSLSASVGDRVTITCQASEDIYSFVAWYQQKPGKAPKLLIYNAQTEAQGVPSRFSGSGSGTDFTLTISSLQPEDFATYYCQHHYDSPLTFGGGTKVEIKR	23	21
nemolizumab AE-HPLC fraction, peak a1 (Post-Region) (antibody, V domains shown, Deamidation at Asn384 in HC; ratio not given) VH: QVQLVQSGAEVKKPGASVKVSCKASGYTFTGYIMNWVRQAPGQGLEWMGLINPYNGGTDYNPQFQDRVTITADKSTSTAYMELSSLRSEDTAVYYCARDGYDDGPYTLETWGQGTLVTVSS VL: DIQMTQSPSSLSASVGDRVTITCQASEDIYSFVAWYQQKPGKAPKLLIYNAQTEAQGVPSRFSGSGSGTDFTLTISSLQPEDFATYYCQHHYDSPLTFGGGTKVEIKR	110	100
nemolizumab AE-HPLC fraction, peaks a2 + a3 (Post-Region) (antibody, V domains shown) VH: QVQLVQSGAEVKKPGASVKVSCKASGYTFTGYIMNWVRQAPGQGLEWMGLINPYNGGTDYNPQFQDRVTITADKSTSTAYMELSSLRSEDTAVYYCARDGYDDGPYTLETWGQGTLVTVSS VL: DIQMTQSPSSLSASVGDRVTITCQASEDIYSFVAWYQQKPGKAPKLLIYNAQTEAQGVPSRFSGSGSGTDFTLTISSLQPEDFATYYCQHHYDSPLTFGGGTKVEIKR	110	100
nemolizumab AE-HPLC fraction, peak a4 (Post-Region) (antibody, V domains shown) VH: QVQLVQSGAEVKKPGASVKVSCKASGYTFTGYIMNWVRQAPGQGLEWMGLINPYNGGTDYNPQFQDRVTITADKSTSTAYMELSSLRSEDTAVYYCARDGYDDGPYTLETWGQGTLVTVSS VL: DIQMTQSPSSLSASVGDRVTITCQASEDIYSFVAWYQQKPGKAPKLLIYNAQTEAQGVPSRFSGSGSGTDFTLTISSLQPEDFATYYCQHHYDSPLTFGGGTKVEIKR	90	82
nemolizumab AE-HPLC fraction, peak a5 (Post-Region) (antibody, V domains shown, Deamidation at Asn55 in HC; ratio not given) VH: QVQLVQSGAEVKKPGASVKVSCKASGYTFTGYIMNWVRQAPGQGLEWMGLINPYNGGTDYNPQFQDRVTITADKSTSTAYMELSSLRSEDTAVYYCARDGYDDGPYTLETWGQGTLVTVSS VL: DIQMTQSPSSLSASVGDRVTITCQASEDIYSFVAWYQQKPGKAPKLLIYNAQTEAQGVPSRFSGSGSGTDFTLTISSLQPEDFATYYCQHHYDSPLTFGGGTKVEIKR	88	79
nemolizumab AE-HPLC fraction, peak a6 (Post-Region) (antibody, V domains shown, Deamidation at Asn55 in the CDRs of the heavy chain, 14.9%) VH: QVQLVQSGAEVKKPGASVKVSCKASGYTFTGYIMNWVRQAPGQGLEWMGLINPYNGGTDYNPQFQDRVTITADKSTSTAYMELSSLRSEDTAVYYCARDGYDDGPYTLETWGQGTLVTVSS VL: DIQMTQSPSSLSASVGDRVTITCQASEDIYSFVAWYQQKPGKAPKLLIYNAQTEAQGVPSRFSGSGSGTDFTLTISSLQPEDFATYYCQHHYDSPLTFGGGTKVEIKR	94	85
nemolizumab AE-HPLC fraction, peaks b4 + b5 + b6 + b7 (Pre-Region 2) (antibody, V domains shown, Asu103 in HC (succinimide at Asp103); ratio not given) VH: QVQLVQSGAEVKKPGASVKVSCKASGYTFTGYIMNWVRQAPGQGLEWMGLINPYNGGTDYNPQFQDRVTITADKSTSTAYMELSSLRSEDTAVYYCARDGYDDGPYTLETWGQGTLVTVSS VL: DIQMTQSPSSLSASVGDRVTITCQASEDIYSFVAWYQQKPGKAPKLLIYNAQTEAQGVPSRFSGSGSGTDFTLTISSLQPEDFATYYCQHHYDSPLTFGGGTKVEIKR	89	80
nemolizumab AE-HPLC fraction, peaks b2 + b3 (Pre-Region 1) (antibody, V domains shown, Asu103 in HC; ratio not given) VH: QVQLVQSGAEVKKPGASVKVSCKASGYTFTGYIMNWVRQAPGQGLEWMGLINPYNGGTDYNPQFQDRVTITADKSTSTAYMELSSLRSEDTAVYYCARDGYDDGPYTLETWGQGTLVTVSS VL: DIQMTQSPSSLSASVGDRVTITCQASEDIYSFVAWYQQKPGKAPKLLIYNAQTEAQGVPSRFSGSGSGTDFTLTISSLQPEDFATYYCQHHYDSPLTFGGGTKVEIKR	73	66
nemolizumab AE-HPLC fraction, peak b1 (Pre-Region 1), isoAsp form (antibody, V domains shown, IsoAsp in CDR (Asp99/102/103) in HC, site not identified: two isoAsp residue-containing peptides at 11.6% and 2.7%; Asu99 1.1%, Asu102 0.2%, Asu103 4.7%) VH: QVQLVQSGAEVKKPGASVKVSCKASGYTFTGYIMNWVRQAPGQGLEWMGLINPYNGGTDYNPQFQDRVTITADKSTSTAYMELSSLRSEDTAVYYCARDGYDDGPYTLETWGQGTLVTVSS VL: DIQMTQSPSSLSASVGDRVTITCQASEDIYSFVAWYQQKPGKAPKLLIYNAQTEAQGVPSRFSGSGSGTDFTLTISSLQPEDFATYYCQHHYDSPLTFGGGTKVEIKR	45	41
